The values below come from patent US12077763B2, “RNA-based control of powdery mildew” (Greenlight Biosciences, Inc., priority 2021, dated 2024).

First the molecules themselves.
B1: GS3620 (nucleic acid)
sense: AGUUGAAGUGCUGUAAAUGGUACAGUCAUGGAAAGAGUAGUUGGAUACGAGAUAUAGAAGGCUGUGAUGCCUUCAGUGCGAUAGAUAUAGCGGGCACAAUCACUCAGUGAUCUAUAAAUUUUGCGAGAGUUAUGCAUUUGCAUUCUUUGCUUUAUUACAUCAAAUGGGUUCAUUAAAGCAUCACUUGCAAUUGUUGCGCAUGCCCCACUUGUAACUAUGUAGCUUCAGUAAGUGCUCAAUAUCAAGGAUAAAUUGGCGAUGUAGUCAUAUAUGUCUGAUUCCUUAAUCAAAAUUCUUAAU
antisense: AUUAAGAAUUUUGAUUAAGGAAUCAGACAUAUAUGACUACAUCGCCAAUUUAUCCUUGAUAUUGAGCACUUACUGAAGCUACAUAGUUACAAGUGGGGCAUGCGCAACAAUUGCAAGUGAUGCUUUAAUGAACCCAUUUGAUGUAAUAAAGCAAAGAAUGCAAAUGCAUAACUCUCGCAAAAUUUAUAGAUCACUGAGUGAUUGUGCCCGCUAUAUCUAUCGCACUGAAGGCAUCACAGCCUUCUAUAUCUCGUAUCCAACUACUCUUUCCAUGACUGUACCAUUUACAGCACUUCAACU
B2: GS3622 (nucleic acid)
sense: AUGAAGUGCAGGAUUUUUCUCUAUAAGUUUCUUACGUUGUAGCGCCGAAGCUUCUCUAAGUUUAAUCUCUGAUGGAGAUAAAACGUUAUAUAUAGGCGUACCAACAGCAAUUGUCCCCUCUUUAAGUAGAUAUAACUUUCGCUUAUCUUUGUCUCGGUCAGUGCGGAAGUUUGUCCCAGCUUCUGUAAGUUUUACAGCUUUUUCUCGAUUAACUGCUCUUGACACUUGAAGUACGCGACCUUCUAUUGUGUAUAAGCCAUUCUUAUCAGCAGUUUCAUCCUCUAAAAUAGAGUUUUUAGCUUUAACAGCGUUUGCACCACUUUUGAAGGUACGAGGUGCACCAUGGUAACAAGAGUCCGCAUCUUCUUGUCUAUAGAAGCAAACAAAGCCAGUGCCUUUA
antisense: UAAAGGCACUGGCUUUGUUUGCUUCUAUAGACAAGAAGAUGCGGACUCUUGUUACCAUGGUGCACCUCGUACCUUCAAAAGUGGUGCAAACGCUGUUAAAGCUAAAAACUCUAUUUUAGAGGAUGAAACUGCUGAUAAGAAUGGCUUAUACACAAUAGAAGGUCGCGUACUUCAAGUGUCAAGAGCAGUUAAUCGAGAAAAAGCUGUAAAACUUACAGAAGCUGGGACAAACUUCCGCACUGACCGAGACAAAGAUAAGCGAAAGUUAUAUCUACUUAAAGAGGGGACAAUUGCUGUUGGUACGCCUAUAUAUAACGUUUUAUCUCCAUCAGAGAUUAAACUUAGAGAAGCUUCGGCGCUACAACGUAAGAAACUUAUAGAGAAAAAUCCUGCACUUCAU
B3: GS3615 (nucleic acid)
sense: UAUCAUUAGUAAUCCCUUUAGCGAUGGCGCCAUUAGUACCUUCGGUUGAGUUGCCAACAUUAGAUACUUCGCCAGCACCAUCAGAUACAUGUGUAGUUAAUUCUUCAGAGGUCUUGUCCGGACUAUCUAUUGCGAUCUUUACUGCAAUCUCACGACCUUGAACUUCUUUUCCAUUCAUUUCGGCAACAGCCCUAUUUUGAAGUUCAUUAGAUGCUAAGUUCACAAAGCCAAACCCACGGCCUUUCCGAGG
antisense: CCUCGGAAAGGCCGUGGGUUUGGCUUUGUGAACUUAGCAUCUAAUGAACUUCAAAAUAGGGCUGUUGCCGAAAUGAAUGGAAAAGAAGUUCAAGGUCGUGAGAUUGCAGUAAAGAUCGCAAUAGAUAGUCCGGACAAGACCUCUGAAGAAUUAACUACACAUGUAUCUGAUGGUGCUGGCGAAGUAUCUAAUGUUGGCAACUCAACCGAAGGUACUAAUGGCGCCAUCGCUAAAGGGAUUACUAAUGAUA
B4: GS3618 (nucleic acid)
sense: CGUAAGCCUUUGAUGGGUUCAGAAAUGUAGAUACAGAUUCGUAUGCGAGAAGUUGAAGUGCUGUAAAUGGUACAGUCAUGGAAAGAGUAGUUGGAUACGAGAUAUAGAAGGCUGUGAUGCCUUCAGUGCGAUAGAUAUAGCGGGCACAAUCACUCAGUGAUCUAUAAAUUUUGCGAGAGUUAUGCAUUUGCAUUCUUUGCUUUAUUACAUCAAAUGGGUUCAUUAAAGCAUCACUUGCAAUUGUUGCGCAUGCCCCACUUGUAACUAUGUAGCUUCAGUAAGUGCUCAAUAUCAAGGAUAAAUUGGCGAUGUAGUCAUAUAUGUCUGAUUCCUUAAUCAAAAUUCUUAAUACAGACCUGCUGCAAUAGGAUGAUGAGCUCCUGUUUGAUUACCUCCCAUG
antisense: CAUGGGAGGUAAUCAAACAGGAGCUCAUCAUCCUAUUGCAGCAGGUCUGUAUUAAGAAUUUUGAUUAAGGAAUCAGACAUAUAUGACUACAUCGCCAAUUUAUCCUUGAUAUUGAGCACUUACUGAAGCUACAUAGUUACAAGUGGGGCAUGCGCAACAAUUGCAAGUGAUGCUUUAAUGAACCCAUUUGAUGUAAUAAAGCAAAGAAUGCAAAUGCAUAACUCUCGCAAAAUUUAUAGAUCACUGAGUGAUUGUGCCCGCUAUAUCUAUCGCACUGAAGGCAUCACAGCCUUCUAUAUCUCGUAUCCAACUACUCUUUCCAUGACUGUACCAUUUACAGCACUUCAACUUCUCGCAUACGAAUCUGUAUCUACAUUUCUGAACCCAUCAAAGGCUUACG
B5: GS3616 (nucleic acid)
sense: UUAAAAGUUGCGGUUUAACUUAAGCUGUAGCCGCAACAGUUUCAGCUGUCCCAGCUAGUCCUUCUGAUUGAAGUUUAUCAUUAGUAAUCCCUUUAGCGAUGGCGCCAUUAGUACCUUCGGUUGAGUUGCCAACAUUAGAUACUUCGCCAGCACCAUCAGAUACAUGUGUAGUUAAUUCUUCAGAGGUCUUGUCCGGACUAUCUAUUGCGAUCUUUACUGCAAUCUCACGACCUUGAACUUCUUUUCCAUUCAUUUCGGCAACAGCCCUAUUUUGAAGUUCAUUAGAUGCUAAGUUCACAAAGCCAAACCCACGGCCUUUCCGAGGUUCGUUGCGGGCCUGAAGCUUUUUAACCAUGAAUUUUGGAAUAGGACGCAGAGCAAUUUUGGCAGAUACUGGUUC
antisense: GAACCAGUAUCUGCCAAAAUUGCUCUGCGUCCUAUUCCAAAAUUCAUGGUUAAAAAGCUUCAGGCCCGCAACGAACCUCGGAAAGGCCGUGGGUUUGGCUUUGUGAACUUAGCAUCUAAUGAACUUCAAAAUAGGGCUGUUGCCGAAAUGAAUGGAAAAGAAGUUCAAGGUCGUGAGAUUGCAGUAAAGAUCGCAAUAGAUAGUCCGGACAAGACCUCUGAAGAAUUAACUACACAUGUAUCUGAUGGUGCUGGCGAAGUAUCUAAUGUUGGCAACUCAACCGAAGGUACUAAUGGCGCCAUCGCUAAAGGGAUUACUAAUGAUAAACUUCAAUCAGAAGGACUAGCUGGGACAGCUGAAACUGUUGCGGCUACAGCUUAAGUUAAACCGCAACUUUUAA
B6: GS3619 (nucleic acid)
sense: UGUAGAUACAGAUUCGUAUGCGAGAAGUUGAAGUGCUGUAAAUGGUACAGUCAUGGAAAGAGUAGUUGGAUACGAGAUAUAGAAGGCUGUGAUGCCUUCAGUGCGAUAGAUAUAGCGGGCACAAUCACUCAGUGAUCUAUAAAUUUUGCGAGAGUUAUGCAUUUGCAUUCUUUGCUUUAUUACAUCAAAUGGGUUCAUUAAAGCAUCACUUGCAAUUGUUGCGCAUGCCCCACUUGUAACUAUGUAGCUUCAGUAAGUGCUCAAUAUCAAGGAUAAAUUGGCGAUGUAGUCAUAUAUGUCUGAUUCCUUAAUCAAAAUUCUUAAUACAGACCUGCUGCAAUAGGAUGAUG
antisense: CAUCAUCCUAUUGCAGCAGGUCUGUAUUAAGAAUUUUGAUUAAGGAAUCAGACAUAUAUGACUACAUCGCCAAUUUAUCCUUGAUAUUGAGCACUUACUGAAGCUACAUAGUUACAAGUGGGGCAUGCGCAACAAUUGCAAGUGAUGCUUUAAUGAACCCAUUUGAUGUAAUAAAGCAAAGAAUGCAAAUGCAUAACUCUCGCAAAAUUUAUAGAUCACUGAGUGAUUGUGCCCGCUAUAUCUAUCGCACUGAAGGCAUCACAGCCUUCUAUAUCUCGUAUCCAACUACUCUUUCCAUGACUGUACCAUUUACAGCACUUCAACUUCUCGCAUACGAAUCUGUAUCUACA
B7: GS3617 (nucleic acid)
sense: UCAUGGAAAGAGUAGUUGGAUACGAGAUAUAGAAGGCUGUGAUGCCUUCAGUGCGAUAGAUAUAGCGGGCACAAUCACUCAGUGAUCUAUAAAUUUUGCGAGAGUUAUGCAUUUGCAUUCUUUGCUUUAUUACAUCAAAUGGGUUCAUUAAAGCAUCACUUGCAAUUGUUGCGCAUGCCCCACUUGUAACUAUGUAGCUUCAGUAAGUGCUCAAUAUCAAGGAUAAAUUGGCGAUGUAGUCAUAUAUGUC
antisense: GACAUAUAUGACUACAUCGCCAAUUUAUCCUUGAUAUUGAGCACUUACUGAAGCUACAUAGUUACAAGUGGGGCAUGCGCAACAAUUGCAAGUGAUGCUUUAAUGAACCCAUUUGAUGUAAUAAAGCAAAGAAUGCAAAUGCAUAACUCUCGCAAAAUUUAUAGAUCACUGAGUGAUUGUGCCCGCUAUAUCUAUCGCACUGAAGGCAUCACAGCCUUCUAUAUCUCGUAUCCAACUACUCUUUCCAUGA
B8: GS1813: dsRNA trigger SEQ ID NO 117; gene target hypothetical_protein_BC1G_11193 (nucleic acid)
DNA: CAATACTTATAGACATAATGTATATTGATAATAATCTAGTGTTGCATATCATTGATGAAGCAACTAATTTTCAGGCGGCTAGGTGGCTCAATAATATCTCTGCCAAACATACATGGGATGCCATACGTGCTTGTTGGATTGATACTTACGTTGGGCCCCCAGACTGCATAATAACAGATGCTGGTAAAAACTTCGTTAGCAAGGAATTTAATCAAAATGCATCATCAATGGAAATTTCGGTGAAAAACGTTCCTGTTGAAGCGCATTGGTCAATAGGAAAAATAGAGCGCTATCACTCTTGCATTCGTCGAGCTTATAAAATTATATCAGAAGAACTAGCTGGAACCGGAATCGGCAAAGAGTTTATGCTCCAGATGGCGGTAAAAGCCATAAACGACACAGCCGGACCTAATGGCTTAGTCCCAACTCTTTTAGTTTTTGGAGCTTATCCAAGAATGTCAAATTTAGACCCTCCTATGCCATCCATAATTCAACGGGCTGCTGCAATCAAAAAGGCGATGCTAGAGATAAGTAAATTACGCGCAAAGCTAACCGTGAATAGTGCTCTAAACCATCGAAACGGACCGAATACGAATA

The first data set deals with E. necator. Briefly: Leaf disc assay, dry inoculum (settling tower), decrease in disease severity / hyphal growth (Example 2). The following applies: decrease in disease severity (hyphal growth) relative to untreated control; time point 1 (untreated control hyphal growth ≥50%); value ± SE.
Take B1: the “% decrease =/− SE TP1” value is recorded as 6 ± 8%.

As to B2, the “% decrease =/− SE TP1” value is on record as 17 ± 4%.

In the case of B3, the “% decrease =/− SE TP1” value was found to be 4 ± 5%.

On to B4, for which the “% decrease =/− SE TP1” value is 27 ± 4%.

With B5, the “% decrease =/− SE TP1” value was 14 ± 4%.

B6: the “% decrease =/− SE TP1” value is 9 ± 2%.

For B7, the “% decrease =/− SE TP1” value is recorded as 22 ± 6%.

On to B8, for which the “% decrease =/− SE TP1” value amounted to 11 ± 5%.

The same data set, now with this note: decrease in disease severity (hyphal growth) relative to untreated control; time point 2; value ± SE.
On to B1, for which the “% decrease =/− SE TP2” value came to 8 ± 7%.

On to B3, for which the “% decrease =/− SE TP2” value stood at 5 ± 5%.

Turning to B7, the “% decrease =/− SE TP2” value amounted to 14 ± 6%.

Regarding B8, the “% decrease =/− SE TP2” value was found to be 4 ± 5%.
